Laboratory results from US20180273617A1 (AstraZeneca / MedImmune, published 2018).

Biological target: T1, human ASCT2 (SLC1A5) (human, UniProt Q15758 1-541)
T1 sequence (looked up): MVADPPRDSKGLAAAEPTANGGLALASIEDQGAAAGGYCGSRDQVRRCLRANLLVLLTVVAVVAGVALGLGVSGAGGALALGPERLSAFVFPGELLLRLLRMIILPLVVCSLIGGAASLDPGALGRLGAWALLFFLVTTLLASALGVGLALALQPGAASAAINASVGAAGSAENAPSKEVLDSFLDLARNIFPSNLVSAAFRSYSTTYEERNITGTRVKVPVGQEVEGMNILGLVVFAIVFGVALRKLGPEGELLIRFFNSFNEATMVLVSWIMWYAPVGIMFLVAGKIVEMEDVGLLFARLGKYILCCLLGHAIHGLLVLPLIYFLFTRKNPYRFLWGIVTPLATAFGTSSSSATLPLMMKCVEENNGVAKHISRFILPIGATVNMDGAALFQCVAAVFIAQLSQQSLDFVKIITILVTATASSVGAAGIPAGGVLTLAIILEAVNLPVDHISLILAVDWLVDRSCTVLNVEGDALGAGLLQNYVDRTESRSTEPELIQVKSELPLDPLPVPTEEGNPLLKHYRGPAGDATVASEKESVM
Experiment: cell-based or functional assay

B1: anti-ASCT2 antibody 17c10 conjugated to tubulysin AZ1508 (antibody, V domains shown)
VH: QVQLQQWGAGLLKPSETLSLTCAVYGGSFSGYYWSWIRQPPGKGLEWIGEIHHSGGANYNPSLKSRVTISVDTSKNQFSLKLTSVTAADTAVYYCARGQGKNWHYDYFDYWGQGTLVTVSS
VL: DIQMTQSPSTLSTSVGDRVTLTCRASQSIRSWLAWYQQNPGKAPKLLIYKASILKIGVPSRFSGSGSGTDFTLTITSLQPDDFATYYCQQYYSYSRTFGQGTKVEIK
modifications: tubulysin AZ1508 conjugated to a cysteine by a thiol-maleimide linkage; site not stated for these assays (engineered cysteine 239i or native cysteines)
For B1, the “IC50 (ng/ml), cytotoxic killing of SKMEL-2 cells, ASCT1-shRNA1 knockdown” value was 7.59 ng/mL, the “IC50 (ng/ml), cytotoxic killing of SKMEL-2 cells, ASCT1-shRNA2 knockdown” value was 4.96 ng/mL and the “IC50 (ng/ml), cytotoxic killing of SKMEL-2 cells, ASCT2-shRNA knockdown” value was 205 ng/mL. The “IC50 (ng/ml), cytotoxic killing of SKMEL-2 cells, NTshRNA (non-target control)” value was 14.3 ng/mL.
